Experiments:
Test in all cases: ELISA; sandwich ELISA: 10 ug each of rmMASP-3-PA and rmMASP-3-ALFA mixed, dialysed against TBS/10 mM EDTA 24 h at 4°C, then against TBS/5 mM CaCl2 24 h at 4°C; 0.14 uM of each, serially diluted in 20% Blocking One in TBS/Ca; captured on anti-PA tag antibody, 30 min room temperature; detected with HRP-conjugated anti-ALFA nanobody
Conditions in all cases: both partners purified
[1] = molecular target: T1, H218A mutant recombinant mouse MASP-3 fused with PA-tag (mouse, UniProt P98064-2 25-733, H218A)
T1 construct: Made from the pCAG-Bsd PA tag-C/WT rmMASP-3 plasmid by site-directed mutagenesis; also called H218A rmMASP-3-PA; mutant rmMASP-3-PA; source: CHO cells, transfected, culture supernatant, purified (anti-PA tag antibody beads); not shown: PA tag (human podoplanin dodecapeptide), C-terminal, kept
T1 sequence (looked up): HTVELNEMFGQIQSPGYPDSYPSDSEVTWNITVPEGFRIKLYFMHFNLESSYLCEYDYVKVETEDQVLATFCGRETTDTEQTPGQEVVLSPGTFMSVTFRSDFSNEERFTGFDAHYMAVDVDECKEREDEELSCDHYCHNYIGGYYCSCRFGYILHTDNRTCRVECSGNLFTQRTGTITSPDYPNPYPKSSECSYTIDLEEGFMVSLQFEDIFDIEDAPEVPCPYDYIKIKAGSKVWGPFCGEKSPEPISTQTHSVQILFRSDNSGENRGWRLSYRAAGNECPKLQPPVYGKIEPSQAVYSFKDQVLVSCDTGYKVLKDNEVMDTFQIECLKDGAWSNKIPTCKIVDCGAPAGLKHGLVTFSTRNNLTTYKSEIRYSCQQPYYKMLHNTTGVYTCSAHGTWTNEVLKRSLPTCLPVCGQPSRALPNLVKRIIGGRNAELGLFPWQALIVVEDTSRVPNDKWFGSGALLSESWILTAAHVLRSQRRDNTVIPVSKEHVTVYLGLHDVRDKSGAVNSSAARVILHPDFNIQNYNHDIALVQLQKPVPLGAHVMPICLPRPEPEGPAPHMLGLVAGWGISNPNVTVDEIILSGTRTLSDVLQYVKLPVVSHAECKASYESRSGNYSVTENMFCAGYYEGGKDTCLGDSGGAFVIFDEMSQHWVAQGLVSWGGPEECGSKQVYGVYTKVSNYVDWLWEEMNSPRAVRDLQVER

[2] = molecular target: T2, Y225A mutant recombinant mouse MASP-3 fused with PA-tag (mouse, UniProt P98064-2 25-733, Y225A)
T2 construct: Made from the pCAG-Bsd PA tag-C/WT rmMASP-3 plasmid by site-directed mutagenesis; also called Y225A rmMASP-3-PA; mutant rmMASP-3-PA; source: CHO cells, transfected, culture supernatant, purified (anti-PA tag antibody beads); not shown: PA tag (human podoplanin dodecapeptide), C-terminal, kept
T2 sequence (looked up): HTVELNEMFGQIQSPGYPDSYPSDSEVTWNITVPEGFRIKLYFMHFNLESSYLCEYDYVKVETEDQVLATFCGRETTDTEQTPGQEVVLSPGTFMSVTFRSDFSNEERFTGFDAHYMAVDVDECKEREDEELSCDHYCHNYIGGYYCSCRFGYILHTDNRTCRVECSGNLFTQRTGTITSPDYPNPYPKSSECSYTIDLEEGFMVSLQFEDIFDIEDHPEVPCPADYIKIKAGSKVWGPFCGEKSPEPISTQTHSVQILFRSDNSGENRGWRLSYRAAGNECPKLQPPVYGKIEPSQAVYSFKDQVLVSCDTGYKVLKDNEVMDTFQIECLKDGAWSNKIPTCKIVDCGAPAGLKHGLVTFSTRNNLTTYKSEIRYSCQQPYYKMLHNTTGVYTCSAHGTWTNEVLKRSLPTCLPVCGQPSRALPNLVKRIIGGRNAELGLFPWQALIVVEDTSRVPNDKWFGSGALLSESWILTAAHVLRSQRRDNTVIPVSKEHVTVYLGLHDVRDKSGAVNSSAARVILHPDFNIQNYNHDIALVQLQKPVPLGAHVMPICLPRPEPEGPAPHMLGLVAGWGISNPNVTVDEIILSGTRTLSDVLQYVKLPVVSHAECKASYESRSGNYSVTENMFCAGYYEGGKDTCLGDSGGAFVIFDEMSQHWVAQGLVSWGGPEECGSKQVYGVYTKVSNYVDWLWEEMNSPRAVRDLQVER

[3] = molecular target: T3, E49A mutant recombinant mouse MASP-3 fused with PA-tag (mouse, UniProt P98064-2 25-733, E49A)
T3 construct: Made from the pCAG-Bsd PA tag-C/WT rmMASP-3 plasmid by site-directed mutagenesis; also called E49A rmMASP-3-PA; mutant rmMASP-3-PA; source: CHO cells, transfected, culture supernatant, purified (anti-PA tag antibody beads); not shown: PA tag (human podoplanin dodecapeptide), C-terminal, kept
T3 sequence (looked up): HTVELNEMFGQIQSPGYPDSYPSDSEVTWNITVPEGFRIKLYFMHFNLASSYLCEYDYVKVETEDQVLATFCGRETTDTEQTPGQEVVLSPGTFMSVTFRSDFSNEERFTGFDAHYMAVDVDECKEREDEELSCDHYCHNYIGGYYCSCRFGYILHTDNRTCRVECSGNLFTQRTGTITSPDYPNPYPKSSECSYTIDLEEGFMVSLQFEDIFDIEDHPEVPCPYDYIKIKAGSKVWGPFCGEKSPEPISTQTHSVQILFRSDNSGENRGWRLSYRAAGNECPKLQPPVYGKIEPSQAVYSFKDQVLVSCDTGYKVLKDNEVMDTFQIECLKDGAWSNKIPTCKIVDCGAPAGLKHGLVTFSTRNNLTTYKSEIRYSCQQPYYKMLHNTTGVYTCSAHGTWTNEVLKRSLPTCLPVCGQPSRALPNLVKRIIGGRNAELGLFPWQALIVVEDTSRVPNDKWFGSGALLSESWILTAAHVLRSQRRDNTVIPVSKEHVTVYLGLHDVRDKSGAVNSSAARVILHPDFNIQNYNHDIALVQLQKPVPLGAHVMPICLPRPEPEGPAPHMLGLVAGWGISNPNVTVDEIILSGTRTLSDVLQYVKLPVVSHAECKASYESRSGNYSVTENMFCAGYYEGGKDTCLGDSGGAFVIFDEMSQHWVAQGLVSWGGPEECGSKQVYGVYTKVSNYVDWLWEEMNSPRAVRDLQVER

[4] = molecular target: T4, wild-type recombinant mouse MASP-3 fused with PA-tag (WT rmMASP-3-PA) (mouse, UniProt P98064-2 25-733)
T4 construct: Secreted from CHO cells, purified as a proenzyme of about 110 kDa; in the circulation partly cleaved into H-chain and L-chain (active form); also called WT-PA; source: CHO cells, transfected, culture supernatant, purified (anti-PA tag antibody beads); not shown: PA tag (human podoplanin dodecapeptide), C-terminal, kept
T4 sequence (looked up): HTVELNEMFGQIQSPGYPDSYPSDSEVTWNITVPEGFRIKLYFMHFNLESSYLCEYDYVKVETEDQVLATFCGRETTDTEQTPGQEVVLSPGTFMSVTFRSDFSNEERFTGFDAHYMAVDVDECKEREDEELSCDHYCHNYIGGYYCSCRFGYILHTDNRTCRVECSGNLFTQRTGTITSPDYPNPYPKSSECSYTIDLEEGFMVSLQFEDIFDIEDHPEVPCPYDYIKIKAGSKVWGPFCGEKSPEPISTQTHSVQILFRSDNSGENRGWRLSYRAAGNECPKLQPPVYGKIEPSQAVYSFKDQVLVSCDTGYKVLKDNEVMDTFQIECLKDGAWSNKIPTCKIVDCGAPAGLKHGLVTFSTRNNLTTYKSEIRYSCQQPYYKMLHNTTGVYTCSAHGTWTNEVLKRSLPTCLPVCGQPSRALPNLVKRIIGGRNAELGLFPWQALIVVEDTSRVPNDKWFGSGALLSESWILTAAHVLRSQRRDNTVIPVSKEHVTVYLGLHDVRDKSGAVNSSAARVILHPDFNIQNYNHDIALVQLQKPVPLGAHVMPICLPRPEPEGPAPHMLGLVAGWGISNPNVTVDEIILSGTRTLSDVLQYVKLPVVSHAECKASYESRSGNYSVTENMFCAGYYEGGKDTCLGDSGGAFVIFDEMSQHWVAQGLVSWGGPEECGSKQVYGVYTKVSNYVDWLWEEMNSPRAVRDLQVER

Measured: binding result

B1: wild-type recombinant mouse MASP-3 with ALFA tag (WT rmMASP-3-ALFA) (enzyme, UniProt P98064-2 25-733, looked up)
chain: HTVELNEMFGQIQSPGYPDSYPSDSEVTWNITVPEGFRIKLYFMHFNLESSYLCEYDYVKVETEDQVLATFCGRETTDTEQTPGQEVVLSPGTFMSVTFRSDFSNEERFTGFDAHYMAVDVDECKEREDEELSCDHYCHNYIGGYYCSCRFGYILHTDNRTCRVECSGNLFTQRTGTITSPDYPNPYPKSSECSYTIDLEEGFMVSLQFEDIFDIEDHPEVPCPYDYIKIKAGSKVWGPFCGEKSPEPISTQTHSVQILFRSDNSGENRGWRLSYRAAGNECPKLQPPVYGKIEPSQAVYSFKDQVLVSCDTGYKVLKDNEVMDTFQIECLKDGAWSNKIPTCKIVDCGAPAGLKHGLVTFSTRNNLTTYKSEIRYSCQQPYYKMLHNTTGVYTCSAHGTWTNEVLKRSLPTCLPVCGQPSRALPNLVKRIIGGRNAELGLFPWQALIVVEDTSRVPNDKWFGSGALLSESWILTAAHVLRSQRRDNTVIPVSKEHVTVYLGLHDVRDKSGAVNSSAARVILHPDFNIQNYNHDIALVQLQKPVPLGAHVMPICLPRPEPEGPAPHMLGLVAGWGISNPNVTVDEIILSGTRTLSDVLQYVKLPVVSHAECKASYESRSGNYSVTENMFCAGYYEGGKDTCLGDSGGAFVIFDEMSQHWVAQGLVSWGGPEECGSKQVYGVYTKVSNYVDWLWEEMNSPRAVRDLQVER
notes: The fragment was put into the pCAG-Bsd PA tag-C vector; also called WT-ALFA; source: CHO cells, transfected, culture supernatant, purified (ALFA Selector ST); not shown: ALFA tag, C-terminal, kept
binds: all assays above

Source: publication PMC9425028, “The complex formation of MASP-3 with pattern recognition molecules of the lectin complement pathway retains MASP-3 in the circulation” (Frontiers in Immunology, 2022)
